# Biological target: hnRNP K (UniProt P61978 1-463)
# Assay: fluorescence anisotropy
row,Binder,Kd [nM]
1,UCUCUUCCCUCCCUCCUUCCCUCCCCCCAU (ssRNA) [hRUNX1 int3-4],13.5
2,UCCUCCUCCCUUCCCCUCCCGGUCCCUA (ssRNA) [mRunx1 int3-4],14.5

# Reference: paper PMC9732523
